This note sets out measurements from publication PMC10801562 (Antibodies, 2024).

Positions count from the first letter of the chain named.

The target of the assay is T1, recombinant human CD3ε-CD3δ heterodimeric protein (CD3εδ) (Homo sapiens).
T1 construct: human CD3ε of the recombinant CD3εδ heterodimer; human CD3δ of the recombinant CD3εδ heterodimer; source: in-house prepared
T1 chain 1: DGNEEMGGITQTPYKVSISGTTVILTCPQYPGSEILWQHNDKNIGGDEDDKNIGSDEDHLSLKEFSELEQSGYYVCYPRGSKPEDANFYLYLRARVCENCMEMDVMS
T1 chain 2: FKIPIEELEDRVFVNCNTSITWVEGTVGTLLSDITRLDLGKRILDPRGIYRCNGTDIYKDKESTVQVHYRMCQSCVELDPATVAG
Put plainly: SPR; Biacore T200, 37 °C, pH 7.4, PB-P+; antibody captured (630 RU) by anti-mouse IgG (Fc) antibody on a CM4 chip; human CD3εδ as analyte, 1.2-4800 nmol/L; 1:1 binding model (mUCHT1, mSP34). Conditions: both partners purified. In general terms: SPR reads the build-up and loss of mass on a sensor chip optically.

B1: mSP34 mIgG2a V1+C19, homodimeric antibody with FAST-Ig V1+C19 mutations (antibody, V domains shown)
VH: EVQLVESGGGLVQPKGSLKLSCAASGFTFNTYAMNWVREAPGKGLEWVARIRSKYNNYATYYADSVKDRFTISRDDSQSILYLQMNNLKTEDTAMYYCVRHGNFGNSYVSWFAYWGQGTLVTVSA
VL: QAVVTQESALTTSPGETVTLTCRSSTGAVTTSNYANWVQKKPDHLFTGLIGGTNKRAPGVPARFSGSLIGDKAALTITGAQTEDEAIYFCALWYSNLWVFGGGTKLTVL
notes: VH of mSP34; mouse IgG2a (mIgG2a) heavy chain constant region; numbers count on: Eu numbering; VL (lambda) of mSP34; mouse lambda light chain constant region (CL); numbers count on: Kabat numbering; Whole IgG of one HC and one LC; also called anti-CD3; H2L2H2L2; source: Expi293F, transiently expressed, purified (Ab-Capcher MAG2, MonoSpin ProA or MonoSpin ProG); copies: 2 + 2
By Kd is commonly meant the constant that tells how readily two partners part at equilibrium. For B1, the Kd worked out at 25.7 nM.

B2: mSP34 mIgG1, homodimeric antibody without FAST-Ig mutations (antibody, V domains shown)
VH: B1 VH with E39Q
VL: B1 VL with K40E
notes: VH of the original mouse antibody mSP34; mouse IgG1 (mIgG1) heavy chain constant region; numbers count on: Eu numbering; VL (lambda) of the original mouse antibody mSP34; mouse lambda light chain constant region (CL); Whole IgG of one HC and one LC; also called anti-CD3; H2L2H2L2; source: Expi293F, transiently expressed, purified (Ab-Capcher MAG2 or MonoSpin ProG); copies: 2 + 2
Turning to B2, the Kd is 20.9 nM.

B3: mUCHT1 mIgG2a, homodimeric antibody without FAST-Ig mutations (antibody, V domains shown)
VH: EVQLQQSGPELVKPGASMKISCKASGYSFTGYTMNWVKQSHGKNLEWMGLINPYKGVSTYNQKFKDKATLTVDKSSSTAYMELLSLTSEDSAVYYCARSGYYGDSDWYFDVWGQGTTLTVFS
VL: DIQMTQTTSSLSASLGDRVTISCRASQDIRNYLNWYQQKPDGTVKLLIYYTSRLHSGVPSKFSGSGSGTDYSLTISNLEQEDIATYFCQQGNTLPWTFAGGTKLEIK
notes: VH of the original mouse antibody mUCHT1; mouse IgG2a (mIgG2a) heavy chain constant region; numbers count on: Eu numbering; VL of the original mouse antibody mUCHT1; mouse kappa light chain constant region (CL); Whole IgG of one HC and one LC; also called anti-CD3; H2L2H2L2; source: Expi293F, transiently expressed, purified (Ab-Capcher MAG2, MonoSpin ProA or MonoSpin ProG); copies: 2 + 2
In the case of B3, the Kd was found to be 1.02 nM.

B4: mUCHT1 mIgG1, homodimeric antibody without FAST-Ig mutations (antibody, V domains shown)
VH: B3 VH
VL: B3 VL
notes: VH of the original mouse antibody mUCHT1; mouse IgG1 (mIgG1) heavy chain constant region; numbers count on: Eu numbering; VL of the original mouse antibody mUCHT1; mouse kappa light chain constant region (CL); Whole IgG of one HC and one LC; also called anti-CD3; H2L2H2L2; source: Expi293F, transiently expressed, purified (Ab-Capcher MAG2 or MonoSpin ProG); copies: 2 + 2
Take B4: the Kd amounted to 1.45 nM.

B5: mUCHT1 mIgG2a V1+C19, homodimeric antibody with FAST-Ig V1+C19 mutations (antibody, V domains shown)
VH: B3 VH with Q39E
VL: B3 VL with Q38K
notes: VH of mUCHT1; mouse IgG2a (mIgG2a) heavy chain constant region; numbers count on: Eu numbering; VL of mUCHT1; mouse kappa light chain constant region (CL); numbers count on: Kabat numbering; Whole IgG of one HC and one LC; also called anti-CD3; H2L2H2L2; source: Expi293F, transiently expressed, purified (Ab-Capcher MAG2, MonoSpin ProA or MonoSpin ProG); copies: 2 + 2
For B5, the Kd turned out to be 1.32 nM.
